# Assay results reported in patent US20200000897A1 (published 2020).
# B1: AIGTPLIGK (peptide)
# peptide: AIGTPLIGK
# B2: VLLLLSLLH (peptide)
# peptide: VLLLLSLLH
# B3: QIRAELMKK (peptide)
# peptide: QIRAELMKK
# B4: EVILTTKTPK (peptide)
# peptide: EVILTTKTPK
# B5: SLFPYYNNLY (peptide)
# peptide: SLFPYYNNLY
# B6: KTQFPQLK (peptide)
# peptide: KTQFPQLK
# B7: ALNDRFAGY (peptide)
# peptide: ALNDRFAGY
# B8: RLGAARGQLR (peptide)
# peptide: RLGAARGQLR
# B9: SIFGLAPGK (peptide)
# peptide: SIFGLAPGK
# B10: RVCMTVDSLVNK (peptide)
# peptide: RVCMTVDSLVNK
# B11: TVYDSIWCNMK (peptide)
# peptide: TVYDSIWCNMK
# B12: HAFPPGPNY (peptide)
# peptide: HAFPPGPNY
# B13: KCYEVGMMK (peptide)
# peptide: KCYEVGMMK
# B14: VVTGNVPLK (peptide)
# peptide: VVTGNVPLK
# B15: ALFGNALVFY (peptide)
# peptide: ALFGNALVFY
# B16: KGWNGQIFK (peptide)
# peptide: KGWNGQIFK
# B17: ITAPLMPLGK (peptide)
# peptide: ITAPLMPLGK
# B18: HSAGIFSMY (peptide)
# peptide: HSAGIFSMY
# B19: VTADGALAMEK (peptide)
# peptide: VTADGALAMEK
# B20: RLVELAGQSLLK (peptide)
# peptide: RLVELAGQSLLK
# B21: GMYEYGSIEK (peptide)
# peptide: GMYEYGSIEK
# B22: KQALSLVRK (peptide)
# peptide: KQALSLVRK
# B23: GVTITKTLK (peptide)
# peptide: GVTITKTLK
# B24: RLSAESKDLLK (peptide)
# peptide: RLSAESKDLLK
# B25: TTYYPSPLNK (peptide)
# peptide: TTYYPSPLNK
# B26: RVLYRPQLEK (peptide)
# peptide: RVLYRPQLEK
# B27: VLYRPQLEK (peptide)
# peptide: VLYRPQLEK
# B28: KINQYIIKK (peptide)
# peptide: KINQYIIKK
# B29: VVFPFPVNKR (peptide)
# peptide: VVFPFPVNKR
# B30: SLYDSEPRKK (peptide)
# peptide: SLYDSEPRKK
# B31: FSNNHPSTPK (peptide)
# peptide: FSNNHPSTPK
# B32: GIFPKIMPK (peptide)
# peptide: GIFPKIMPK
# B33: SSFRPLLSK (peptide)
# peptide: SSFRPLLSK
# B34: SVLSRMLVR (peptide)
# peptide: SVLSRMLVR
# B35: RTIEELQNK (peptide)
# peptide: RTIEELQNK
# B36: RVKEIVINK (peptide)
# peptide: RVKEIVINK
# B37: VVREILHAQTLK (peptide)
# peptide: VVREILHAQTLK
# B38: KGPMAGILAY (peptide)
# peptide: KGPMAGILAY
# B39: GLSTILLYH (peptide)
# peptide: GLSTILLYH
# B40: VTAVASLLK (peptide)
# peptide: VTAVASLLK
# B41: VLYELGIIGNNK (peptide)
# peptide: VLYELGIIGNNK
# B42: HVLYPVPLESY (peptide)
# peptide: HVLYPVPLESY
# B43: KLYPQCLQK (peptide)
# peptide: KLYPQCLQK
# B44: RCFSGPYLNK (peptide)
# peptide: RCFSGPYLNK
# B45: IIFVPEMNK (peptide)
# peptide: IIFVPEMNK
# B46: IINESLLFY (peptide)
# peptide: IINESLLFY
# B47: VVDDSQLPK (peptide)
# peptide: VVDDSQLPK
# B48: KTGTFVLYKS (peptide)
# peptide: KTGTFVLYKS
# B49: AVAAVLLSR (peptide)
# peptide: AVAAVLLSR
# B50: ALCGTQLFY (peptide)
# peptide: ALCGTQLFY
# B51: HLFLPFSYK (peptide)
# peptide: HLFLPFSYK
# B52: CLANYTVNK (peptide)
# peptide: CLANYTVNK
# B53: KARDLRTPK (peptide)
# peptide: KARDLRTPK
# B54: KLADSVMAGK (peptide)
# peptide: KLADSVMAGK
# B55: QLYSPPSPSYR (peptide)
# peptide: QLYSPPSPSYR
# B56: IMPTFDLTK (peptide)
# peptide: IMPTFDLTK
# B57: RVSGSGGGGAGK (peptide)
# peptide: RVSGSGGGGAGK
# B58: RLASVGLDAK (peptide)
# peptide: RLASVGLDAK
# B59: GTHVWVGLYK (peptide)
# peptide: GTHVWVGLYK
# B60: VIYVICRHK (peptide)
# peptide: VIYVICRHK
# B61: RTALLWGLKK (peptide)
# peptide: RTALLWGLKK
# B62: IMKRQVKCITK (peptide)
# peptide: IMKRQVKCITK
# B63: KRIPFRPLAK (peptide)
# peptide: KRIPFRPLAK
# B64: PLPRPGAVLK (peptide)
# peptide: PLPRPGAVLK
# B65: SVEGLSRRLK (peptide)
# peptide: SVEGLSRRLK
# B66: GMTLLCEALK (peptide)
# peptide: GMTLLCEALK
# B67: FLGLAFHPK (peptide)
# peptide: FLGLAFHPK
# B68: RAVSVNPGK (peptide)
# peptide: RAVSVNPGK
# B69: RVRALGSQY (peptide)
# peptide: RVRALGSQY
# B70: VSVAGSILAK (peptide)
# peptide: VSVAGSILAK
# B71: RTYTCQVTY (peptide)
# peptide: RTYTCQVTY
# B72: TTNARILAR (peptide)
# peptide: TTNARILAR
# Biological target: T1, HLA-A*03:01 (human)
# T1 construct: MHC class I monomer first loaded with a UV-sensitive peptide that is cleaved by UV irradiation and exchanged for the test peptide; captured on streptavidin plates; also called peptide-receptive MHC molecules
# Experiment: UV-ligand exchange, anti-b2m ELISA; peptide exchange yield grade (>10% +, >20% ++, >50% +++, >75% ++++)
# Method in brief: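 HLA-A*03:01 complexes were formed by UV-induced exchange of a photocleavable peptide for the test peptide. Exchange yield was measured by ELISA: streptavidin capture of 100-fold diluted monomers, HRP-anti-β2m detection, TMB read at 450 nm, quantified against HLA-A*02:01 monomer standards (15–500 ng/ml) and graded by % yield.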
row,Binder,peptide exchange yield
1,B1,50 to 75%
2,B2,20 to 50%
3,B3,> 75%
4,B4,20 to 50%
5,B5,10 to 20%
6,B6,20 to 50%
7,B7,50 to 75%
8,B8,20 to 50%
9,B9,> 75%
10,B10,> 75%
11,B11,> 75%
12,B12,10 to 20%
13,B13,> 75%
14,B14,50 to 75%
15,B15,> 75%
16,B16,50 to 75%
17,B17,> 75%
18,B18,20 to 50%
19,B19,50 to 75%
20,B20,> 75%
21,B21,> 75%
22,B22,50 to 75%
23,B23,50 to 75%
24,B24,50 to 75%

row,Binder,peptide exchange yield
1,B25,50 to 75%
2,B26,50 to 75%
3,B27,> 75%
4,B28,50 to 75%
5,B29,50 to 75%
6,B30,> 75%
7,B31,50 to 75%
8,B32,> 75%
9,B33,> 75%
10,B34,> 75%
11,B35,50 to 75%
12,B36,50 to 75%
13,B37,50 to 75%
14,B38,20 to 50%
15,B39,> 75%
16,B40,> 75%
17,B41,50 to 75%
18,B42,50 to 75%
19,B43,> 75%
20,B44,> 75%
21,B45,> 75%
22,B46,50 to 75%
23,B47,20 to 50%
24,B48,50 to 75%

row,Binder,peptide exchange yield
1,B49,50 to 75%
2,B50,> 75%
3,B51,> 75%
4,B52,> 75%
5,B53,50 to 75%
6,B54,> 75%
7,B55,> 75%
8,B56,10 to 20%
9,B57,50 to 75%
10,B58,> 75%
11,B59,> 75%
12,B60,50 to 75%
13,B61,> 75%
14,B62,10 to 20%
15,B63,20 to 50%
16,B64,20 to 50%
17,B65,50 to 75%
18,B66,20 to 50%
19,B67,20 to 50%
20,B68,10 to 20%
21,B69,> 75%
22,B70,20 to 50%
23,B71,> 75%
24,B72,50 to 75%
